# Data from the RNAGym collection of RNA variant scans (doi:10.1073/pnas.2313332121).
# This sample holds only a part of the variants without activity.
# B1: TPR 5TU (parent)
# chain: GGAUCUUCUCGAUCUAACAAAAAAGACAAAUCUGCCACAAAGCUUGAGAGCAUCUUCGGAUGCAGAGGCGGCAGCCUUCGGUGGCGCGAUAGCGCCAACGUUCUCAACUAUGACACGCAAAACGCGUGCUCCGUUGAAUGGAGUUUAUCAUG
# Variants of: B1
# Assay: polymerase ribozyme fitness, log enrichment relative to wild type (log ratio); higher = more active; in vitro selection for triplet polymerase activity
# Summary of the method: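 Mutant libraries of each subunit of a heterodimeric triplet polymerase ribozyme were built by PCR and transcribed. Each library went through one round of in vitro selection in triplicate: annealing with biotinylated primer, partner subunit and triplets, frozen incubation at −7 °C, gel excision of extended constructs, streptavidin-bead capture and RT-PCR. Input and output libraries were Illumina-sequenced; only genotypes with ≥10 input reads and ≥1 read per output were kept. Fitness is log2(genotype enrichment/wild-type enrichment), using inverse-variance-weighted replicate averages.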
row,Variant,polymerase ribozyme fitness (log ratio)
1,U56A G80U C99A A122C,-1.16
2,U56A U78G G92A U144A,≤ -4.2
3,U56C C95A U102A,-1.87
4,C57A G86A U146G,-1.4
5,C57U C85U A89C U127A,-4.18
6,C57U G70A G83C U139G,≤ -4.2
7,C57G A91G A147C,-3.13
8,U56C C132U,-1.47
9,C57G G84A C103U A110G,-3.52
10,C57A G58A C79U G88U,≤ -4.2
11,U56G C63U C93G,-3.47
12,C57U C85A A98C,-1.23
13,U56A G62A C76U G81A C87U C95U,-1.49
14,C57G G71A C96A U146A,-4.05
15,C57U C75U A107U U127C A150G,≤ -4.2
16,U56A G80U G84U U102G G124U,≤ -4.2
17,C57A U104G A120U,-0.824
18,C57G U78A G84A G94C C103U C105A G133U G140U U144C,≤ -4.2
19,C57A G59C U146C U148A C149U,-3.99
20,U56A G70C,-3.24
21,C57G A60C,-2.4
22,C57G C96A,-0.472
23,C57G A121U U135C,-2.26
24,U56A G59A C105G A110G A150C,≤ -4.2

row,Variant,polymerase ribozyme fitness (log ratio)
1,C57A G136A,0.714
2,C57A A138C,-3.77
3,C57G C85U,-1.28
4,C57A A113U,-1.86
5,U56A U127A A138C A142G,-3.48
6,C57G G88A C96U U139C A142G,≤ -4.2
7,C57U G59A G86A U134A U148A,≤ -4.2
8,C57G G83C C85U A119G,-1.44
9,C57G A89G C93A,≤ -4.2
10,C57U C95U C103G,-1.87
11,C57A U90A A91U A138U,≤ -4.2
12,U56A G117C,-0.369
13,U56A G117A,-0.176
14,U56C G59A G92U U135A,-2.19
15,U56G U78G C79U G86A C87G C95A A115U G152C,≤ -4.2
16,U56A U101A,-0.244
17,C57A C85U,-0.0999
18,C57A C85G,-1.75
19,C57A C85A,-1.28
20,C57U C85G,-2.48
21,C57U G59C C95G C108U U148A,≤ -4.2
22,U56A G88U U104C G124U,≤ -4.2
23,C57U C95U,-1.55
24,C57U C95G,-2.96

row,Variant,polymerase ribozyme fitness (log ratio)
1,C57G G58A A60G A137U,-4.15
2,U56A G94U C95A G143U,-3.39
3,C57G G141A,0.453
4,U56A G92C U139A G140U,-3.76
5,C57U C79G,-3.67
6,C57G G65C G84A U139A G140U,≤ -4.2
7,C57U C85A G100U A138G,≤ -4.2
8,U56A G136A,-0.463
9,C57U C75U,0.237
10,C57U C75G,-3.63
11,U56G G84U A97U C99G G133U,≤ -4.2
12,C57A G100C,≤ -4.2
13,U56C C108U,-4.01
14,C57A G70A G86U C96A C99U U134C U146C,≤ -4.2
15,U56G C108A,≤ -4.2
16,U56C C57U A89U C95G A137C,-4.07
17,C57A A150U,1.72
18,U56A G141A,0.775
19,C57U A110G,-2.85
20,C57A G83C G141A,-0.777
21,C57A A60C C85A,-3.08
22,C57U C116G,0.474
23,U56A G86A,-1.16
24,U56G C76U A91G A122U C149G,≤ -4.2

row,Variant,polymerase ribozyme fitness (log ratio)
1,C57G G84U A89C G112C U139C C149A,≤ -4.2
2,C57U G84A,-0.782
3,C57U A91G A97G U135A G143A,≤ -4.2
4,U56C U78G G80A G84C,≤ -4.2
5,U56A G88U,-3.06
6,U56A G88C,-4.12
7,U56A U61C,-3.45
8,C57U G86A,-1.16
9,C57U G86U,-1.78
10,U56G G71C C85U C116A,≤ -4.2
11,C57U G92C A97C U145A,0.369
12,C57U A66C G92U C93A,≤ -4.2
13,U56C C87U,-1.06
14,C57A G88U A120C G124A C149A,≤ -4.2
15,C57U C85A G100U A115G U135A G141C,≤ -4.2
16,U56A U61A C76G G84A C103G,≤ -4.2
17,C57U G68A C72U G92A,≤ -4.2
18,C57G C72G C79U C103G,≤ -4.2
19,C57U C105A,-0.73
20,C57U C105G,-0.3
21,U56G U135A,-1.84
22,U56G U135G,-3.68
23,C57G C79U,-2.13
24,U56A G74C,-4.17

row,Variant,polymerase ribozyme fitness (log ratio)
1,C57U C114G,-2.73
2,C57G C123U U145A,-0.237
3,C57A G74U C85A U130G,≤ -4.2
4,U56G C93U,-3.02
5,C57U G59A C85U C95G,-2.02
6,C57A G80C A137C G143U,≤ -4.2
7,C57A G70U G80A G83C C87U C108A,≤ -4.2
8,C57A U82A A121U G133C,-0.916
9,C57U C69G G84A C85G,≤ -4.2
10,U56G C63A A120G,-0.244
11,U56A G88C A142U,≤ -4.2
12,U56G C116G,-0.0028
13,U56G C93U A107G A120U,-4.12
14,U56C C87U A89G U101G,-2.81
15,U56A G128C,-2.8
16,U56A G70C U78A U82A C131A,≤ -4.2
17,U56C C85A C131G,-3.7
18,C57G G84U U109G G136U,-3.84
19,C57A A64G A66G C118U A147C G152U,≤ -4.2
20,U56G G68U G81A G84A A91C U135C,≤ -4.2
21,C57U A113C,-2.27
22,C57U A91C,≤ -4.2
23,C57U A91G,-2.92
24,C57U C93G,-3.36

row,Variant,polymerase ribozyme fitness (log ratio)
1,C57U C93A,-1.61
2,C57A C93U,-1.11
3,C57A C93G,-3.05
4,C57A C76G A113G G126A C129A U134G,≤ -4.2
5,U56A G84A U127G,-3.06
6,C57G A150G,-1.23
7,C57A U102G,-1.73
8,C57U G84C C95A C116G G136U A138C,-4.17
9,U56A G80C G92A,≤ -4.2
10,U56G G70U C85U U151A,≤ -4.2
11,U56G G68U,≤ -4.2
12,C57A A64C C85A C95U U130A A147U,≤ -4.2
13,C57A U82G G84U C95A,-0.701
14,U56A U146A U148C,-2.96
15,C57U C95A G112U U151A,-4.06
16,C57A C85U A106U C125G G136U U146G,-3.77
17,U56A U148G,-3.6
18,C57U,-0.0371
19,C57A,-0.00233
20,C57G,-0.448
21,C57U G58C A60U G88A C99A,≤ -4.2
22,C57A A89C G94U A142G,-3.19
23,U56G C103A A122U U146A,-2.78
24,U56G C57A G81A A107C G117A,≤ -4.2

row,Variant,polymerase ribozyme fitness (log ratio)
1,U56G U82A A89G C95U G133C,-3.49
2,U56A G92A U148G,≤ -4.2
3,C57A A60G G74U,-4.12
4,C57A U127A,-3.56
5,U56A U130A A147C,-3.18
6,C57U G70U C79A C93G C105G G143C,≤ -4.2
7,C57A U135C,-1.62
8,C57U C85A G133C G136A,-1.86
9,U56A G84A,-1.06
10,C57G C116A,1.35
11,U56A U82G,0.243
12,C57U G59A G67C G94C,≤ -4.2
13,C57G A98U,-0.592
14,U56C G67U A91C A97U C123A,≤ -4.2
15,U56G C85G,-2.54
16,C57A C95U C149U,-0.536
17,C57G G58C A137C,-3.85
18,U56A G71U U78G C85U G143U,≤ -4.2
19,C57U C87U A113C A119G,-3.09
20,C57U G84A A98U C129U A147U,-1.13
21,C57U C93A G126C,-0.766
22,C57G G58U A137G G143A,-2.87
23,U56C C96U,-0.496
